ChEMBL document CHEMBL2429837, “Identification of cryptotanshinone as an inhibitor of oncogenic protein tyrosine phosphatase SHP2 (PTPN11)” (J Med Chem, 2013)

Legend:
Conditions in all cases: Homo sapiens; 25 uM
[1] = substrate: C[C@H]1COC2=C1C(=O)C(=O)c1c2ccc2c1CCCC2(C)C
[2] = substrate: C[C@H]1COC2=C1C(=O)C(=O)c1c2ccc2c1CCCC2(C)C; remark: listed apart in the source
[3] = substrate: C[C@H]1COC2=C1C(=O)C(=O)c1c2ccc2c1CCCC2(C)C; remark: listed apart in the source
[4] = substrate: C[C@H]1COC2=C1C(=O)C(=O)c1c2ccc2c1CCCC2(C)C; remark: listed apart in the source

B1: Tyrosine-protein phosphatase non-receptor type 11 (Homo sapiens), Q06124 (protein)
chain: MTSRRWFHPNITGVEAENLLLTRGVDGSFLARPSKSNPGDFTLSVRRNGAVTHIKIQNTGDYYDLYGGEKFATLAELVQYYMEHHGQLKEKNGDVIELKYPLNCADPTSERWFHGHLSGKEAEKLLTEKGKHGSFLVRESQSHPGDFVLSVRTGDDKGESNDGKSKVTHVMIRCQELKYDVGGGERFDSLTDLVEHYKKNPMVETLGTVLQLKQPLNTTRINAAEIESRVRELSKLAETTDKVKQGFWEEFETLQQQECKLLYSRKEGQRQENKNKNRYKNILPFDHTRVVLHDGDPNEPVSDYINANIIMPEFETKCNNSKPKKSYIATQGCLQNTVNDFWRMVFQENSRVIVMTTKEVERGKSKCVKYWPDEYALKEYGVMRVRNVKESAAHDYTLRELKLSKVGQGNTERTVWQYHFRTWPDHGVPSDPGGVLDFLEEVHHKQESIMDAGPVVVHCSAGIGRTGTFIVIDILIDIIREKGVDCDIDVPKTIQMVRSQRSGMVQTEAQYRFIYMAVQHYIETLQRRIEEEQKSKRKGHEYTNIKYSLADQTSGDQSPLPPCTPTPPCAEMREDSARVYENVGLMQQQKSFR
Protein B1 has a kcat [1] of 0.36 s⁻¹, a Km [2] of 170 µM and a Vmax [3] of 6.96 µM/min. It also gave a kcat/Km [4] of 2150 M⁻¹ s⁻¹.
